Where a SMILES comes first, the peptide text is derived from it. Bridges are numbered along the chain shown (N, C = ends). Where no end group is shown, it is not given here. [ ]: non-standard residue; d: D form. Orn = NCCC[C@H](N)C(=O)O
T1: adenylyl cyclase, ROS 17/2 cells (Rattus norvegicus, UniProt P25961)
T1 sequence (P25961 27-591): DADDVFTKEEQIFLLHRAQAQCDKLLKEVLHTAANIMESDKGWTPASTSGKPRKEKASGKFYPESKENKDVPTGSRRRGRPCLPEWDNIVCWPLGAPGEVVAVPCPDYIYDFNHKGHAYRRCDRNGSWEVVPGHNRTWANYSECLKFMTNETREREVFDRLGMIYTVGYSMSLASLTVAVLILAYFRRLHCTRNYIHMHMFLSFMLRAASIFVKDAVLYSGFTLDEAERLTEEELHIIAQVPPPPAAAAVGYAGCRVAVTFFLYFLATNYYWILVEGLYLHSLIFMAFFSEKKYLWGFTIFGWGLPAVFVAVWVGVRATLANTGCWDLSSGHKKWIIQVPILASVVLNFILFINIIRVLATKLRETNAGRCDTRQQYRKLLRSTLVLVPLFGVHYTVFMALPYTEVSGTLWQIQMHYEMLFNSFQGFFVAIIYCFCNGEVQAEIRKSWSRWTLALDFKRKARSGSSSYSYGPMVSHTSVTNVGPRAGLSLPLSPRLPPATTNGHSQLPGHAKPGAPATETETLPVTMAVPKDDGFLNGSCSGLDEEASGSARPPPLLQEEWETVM

B1: [Leu^27]cyclo(Glu^22-Lys^26)-hPTH-(1-31)-OH (peptide)
peptide: SVSEIQLMHNLGKHLNSMERVEWLRKLLQDV-OH
modifications: lactam 22-26
B2: [Cys^22, Cys^26, Leu^27]cyclo(Cys^22-Cys^26)-hPTH-(1-31)-NH2 (peptide)
peptide: SVSEIQLMHNLGKHLNSMERVCWLRCLLQDV-NH2
modifications: disulfide 22-26; N-terminus assumed
SMILES: CC[C@H](C)[C@H](NC(=O)[C@H](CCC(=O)O)NC(=O)[C@H](CO)NC(=O)[C@@H](NC(=O)[C@@H](N)CO)C(C)C)C(=O)N[C@@H](CCC(N)=O)C(=O)N[C@@H](CC(C)C)C(=O)N[C@@H](CCSC)C(=O)N[C@@H](Cc1c[nH]cn1)C(=O)N[C@@H](CC(N)=O)C(=O)N[C@@H](CC(C)C)C(=O)NCC(=O)N[C@@H](CCCCN)C(=O)N[C@@H](Cc1c[nH]cn1)C(=O)N[C@@H](CC(C)C)C(=O)N[C@@H](CC(N)=O)C(=O)N[C@@H](CO)C(=O)N[C@@H](CCSC)C(=O)N[C@@H](CCC(=O)O)C(=O)N[C@@H](CCCNC(=N)N)C(=O)N[C@H](C(=O)N[C@H]1CSSC[C@@H](C(=O)N[C@@H](CC(C)C)C(=O)N[C@@H](CC(C)C)C(=O)N[C@@H](CCC(N)=O)C(=O)N[C@@H](CC(=O)O)C(=O)N[C@H](C(N)=O)C(C)C)NC(=O)[C@H](CCCNC(=N)N)NC(=O)[C@H](CC(C)C)NC(=O)[C@H](Cc2c[nH]c3ccccc23)NC1=O)C(C)C
B3: [Cys^26, Cys^30, Leu^27]cyclo(Cys^26-Cys^30)-hPTH-(1-31)-NH2 (peptide)
peptide: SVSEIQLMHNLGKHLNSMERVEWLRCLLQCV-NH2
modifications: disulfide 26-30; N-terminus assumed
SMILES: CC[C@H](C)[C@H](NC(=O)[C@H](CCC(=O)O)NC(=O)[C@H](CO)NC(=O)[C@@H](NC(=O)[C@@H](N)CO)C(C)C)C(=O)N[C@@H](CCC(N)=O)C(=O)N[C@@H](CC(C)C)C(=O)N[C@@H](CCSC)C(=O)N[C@@H](Cc1c[nH]cn1)C(=O)N[C@@H](CC(N)=O)C(=O)N[C@@H](CC(C)C)C(=O)NCC(=O)N[C@@H](CCCCN)C(=O)N[C@@H](Cc1c[nH]cn1)C(=O)N[C@@H](CC(C)C)C(=O)N[C@@H](CC(N)=O)C(=O)N[C@@H](CO)C(=O)N[C@@H](CCSC)C(=O)N[C@@H](CCC(=O)O)C(=O)N[C@@H](CCCNC(=N)N)C(=O)N[C@H](C(=O)N[C@@H](CCC(=O)O)C(=O)N[C@@H](Cc1c[nH]c2ccccc12)C(=O)N[C@@H](CC(C)C)C(=O)N[C@@H](CCCNC(=N)N)C(=O)N[C@H]1CSSC[C@@H](C(=O)N[C@H](C(N)=O)C(C)C)NC(=O)[C@H](CCC(N)=O)NC(=O)[C@H](CC(C)C)NC(=O)[C@H](CC(C)C)NC1=O)C(C)C
B4: [Leu^27]cyclo(Glu^22-Lys^26)-hPTH-(1-34)-OH (peptide)
peptide: SVSEIQLMHNLGKHLNSMERVEWLRKLLQDVHNF-OH
modifications: lactam 22-26; N-terminus assumed
SMILES: CC[C@H](C)[C@H](NC(=O)[C@H](CCC(=O)O)NC(=O)[C@H](CO)NC(=O)[C@@H](NC(=O)[C@@H](N)CO)C(C)C)C(=O)N[C@@H](CCC(N)=O)C(=O)N[C@@H](CC(C)C)C(=O)N[C@@H](CCSC)C(=O)N[C@@H](Cc1c[nH]cn1)C(=O)N[C@@H](CC(N)=O)C(=O)N[C@@H](CC(C)C)C(=O)NCC(=O)N[C@@H](CCCCN)C(=O)N[C@@H](Cc1c[nH]cn1)C(=O)N[C@@H](CC(C)C)C(=O)N[C@@H](CC(N)=O)C(=O)N[C@@H](CO)C(=O)N[C@@H](CCSC)C(=O)N[C@@H](CCC(=O)O)C(=O)N[C@@H](CCCNC(=N)N)C(=O)N[C@H](C(=O)N[C@H]1CCC(=O)NCCCC[C@@H](C(=O)N[C@@H](CC(C)C)C(=O)N[C@@H](CC(C)C)C(=O)N[C@@H](CCC(N)=O)C(=O)N[C@@H](CC(=O)O)C(=O)N[C@H](C(=O)N[C@@H](Cc2c[nH]cn2)C(=O)N[C@@H](CC(N)=O)C(=O)N[C@@H](Cc2ccccc2)C(=O)O)C(C)C)NC(=O)[C@H](CCCNC(=N)N)NC(=O)[C@H](CC(C)C)NC(=O)[C@H](Cc2c[nH]c3ccccc23)NC1=O)C(C)C
B5: [Leu^27]cyclo(Asp^22-Orn^26)-hPTH-(1-31)-NH2 (peptide)
peptide: SVSEIQLMHNLGKHLNSMERVDWLR[Orn]LLQDV-NH2
modifications: lactam 22-26; N-terminus assumed
SMILES: CC[C@H](C)[C@H](NC(=O)[C@H](CCC(=O)O)NC(=O)[C@H](CO)NC(=O)[C@@H](NC(=O)[C@@H](N)CO)C(C)C)C(=O)N[C@@H](CCC(N)=O)C(=O)N[C@@H](CC(C)C)C(=O)N[C@@H](CCSC)C(=O)N[C@@H](Cc1c[nH]cn1)C(=O)N[C@@H](CC(N)=O)C(=O)N[C@@H](CC(C)C)C(=O)NCC(=O)N[C@@H](CCCCN)C(=O)N[C@@H](Cc1c[nH]cn1)C(=O)N[C@@H](CC(C)C)C(=O)N[C@@H](CC(N)=O)C(=O)N[C@@H](CO)C(=O)N[C@@H](CCSC)C(=O)N[C@@H](CCC(=O)O)C(=O)N[C@@H](CCCNC(=N)N)C(=O)N[C@H](C(=O)N[C@H]1CC(=O)NCCC[C@@H](C(=O)N[C@@H](CC(C)C)C(=O)N[C@@H](CC(C)C)C(=O)N[C@@H](CCC(N)=O)C(=O)N[C@@H](CC(=O)O)C(=O)N[C@H](C(N)=O)C(C)C)NC(=O)[C@H](CCCNC(=N)N)NC(=O)[C@H](CC(C)C)NC(=O)[C@H](Cc2c[nH]c3ccccc23)NC1=O)C(C)C
B6: [Leu^27]cyclo(Glu^22-Lys^26)-hPTH-(1-30)-NH2 (peptide)
peptide: SVSEIQLMHNLGKHLNSMERVEWLRKLLQD-NH2
modifications: lactam 22-26; N-terminus assumed
SMILES: CC[C@H](C)[C@H](NC(=O)[C@H](CCC(=O)O)NC(=O)[C@H](CO)NC(=O)[C@@H](NC(=O)[C@@H](N)CO)C(C)C)C(=O)N[C@@H](CCC(N)=O)C(=O)N[C@@H](CC(C)C)C(=O)N[C@@H](CCSC)C(=O)N[C@@H](Cc1c[nH]cn1)C(=O)N[C@@H](CC(N)=O)C(=O)N[C@@H](CC(C)C)C(=O)NCC(=O)N[C@@H](CCCCN)C(=O)N[C@@H](Cc1c[nH]cn1)C(=O)N[C@@H](CC(C)C)C(=O)N[C@@H](CC(N)=O)C(=O)N[C@@H](CO)C(=O)N[C@@H](CCSC)C(=O)N[C@@H](CCC(=O)O)C(=O)N[C@@H](CCCNC(=N)N)C(=O)N[C@H](C(=O)N[C@H]1CCC(=O)NCCCC[C@@H](C(=O)N[C@@H](CC(C)C)C(=O)N[C@@H](CC(C)C)C(=O)N[C@@H](CCC(N)=O)C(=O)N[C@@H](CC(=O)O)C(N)=O)NC(=O)[C@H](CCCNC(=N)N)NC(=O)[C@H](CC(C)C)NC(=O)[C@H](Cc2c[nH]c3ccccc23)NC1=O)C(C)C
B7: [Leu^27]cyclo(Lys^22-Glu^26)-hPTH-(1-31)-NH2 (peptide)
peptide: SVSEIQLMHNLGKHLNSMERVKWLRELLQDV-NH2
modifications: lactam 22-26; N-terminus assumed
SMILES: CC[C@H](C)[C@H](NC(=O)[C@H](CCC(=O)O)NC(=O)[C@H](CO)NC(=O)[C@@H](NC(=O)[C@@H](N)CO)C(C)C)C(=O)N[C@@H](CCC(N)=O)C(=O)N[C@@H](CC(C)C)C(=O)N[C@@H](CCSC)C(=O)N[C@@H](Cc1c[nH]cn1)C(=O)N[C@@H](CC(N)=O)C(=O)N[C@@H](CC(C)C)C(=O)NCC(=O)N[C@@H](CCCCN)C(=O)N[C@@H](Cc1c[nH]cn1)C(=O)N[C@@H](CC(C)C)C(=O)N[C@@H](CC(N)=O)C(=O)N[C@@H](CO)C(=O)N[C@@H](CCSC)C(=O)N[C@@H](CCC(=O)O)C(=O)N[C@@H](CCCNC(=N)N)C(=O)N[C@H](C(=O)N[C@H]1CCCCNC(=O)CC[C@@H](C(=O)N[C@@H](CC(C)C)C(=O)N[C@@H](CC(C)C)C(=O)N[C@@H](CCC(N)=O)C(=O)N[C@@H](CC(=O)O)C(=O)N[C@H](C(N)=O)C(C)C)NC(=O)[C@H](CCCNC(=N)N)NC(=O)[C@H](CC(C)C)NC(=O)[C@H](Cc2c[nH]c3ccccc23)NC1=O)C(C)C

target: T1, adenylyl cyclase, ROS 17/2 cells; test: Adenylyl cyclase stimulation, [3H]-cyclic AMP production in ROS 17/2 cells; format: cell-based; settings: ROS 17/2 cells; concentration for half-maximal increase in AC activity; read-out: Adenylyl Cyclase (EC50)

**Q.** CC[C@H](C)[C@H](NC(=O)[C@H](CCC(=O)O)NC(=O)[C@H](CO)NC(=O)[C@@H](NC(=O)[C@@H](N)CO)C(C)C)C(=O)N[C@@H](CCC(N)=O)C(=O)N[C@@H](CC(C)C)C(=O)N[C@@H](CCSC)C(=O)N[C@@H](Cc1c[nH]cn1)C(=O)N[C@@H](CC(N)=O)C(=O)N[C@@H](CC(C)C)C(=O)NCC(=O)N[C@@H](CCCCN)C(=O)N[C@@H](Cc1c[nH]cn1)C(=O)N[C@@H](CC(C)C)C(=O)N[C@@H](CC(N)=O)C(=O)N[C@@H](CO)C(=O)N[C@@H](CCSC)C(=O)N[C@@H](CCC(=O)O)C(=O)N[C@@H](CCCNC(=N)N)C(=O)N[C@H](C(=O)N[C@H]1CCC(=O)NCCCC[C@@H](C(=O)N[C@@H](C)C(=O)N[C@@H](CC(C)C)C(=O)N[C@@H](CCC(N)=O)C(=O)N[C@@H](CC(=O)O)C(=O)N[C@H](C(N)=O)C(C)C)NC(=O)[C@H](CCCNC(=N)N)NC(=O)[C@H](CC(C)C)NC(=O)[C@H](Cc2c[nH]c3ccccc23)NC1=O)C(C)C [[Ala^27]cyclo(Glu^22—Lys^26)—hPTH—(1-31)-NH2] (H-SVSEIQLMHNLGKHLNSMERVEWLRKALQDV-NH2; lactam 22-26; N-terminus assumed) was tested. Which EC50 did it give?
**A.** 9 nM

target: PTH receptor (rat (ROS 17/2 rat osteosarcoma cell …, UniProt P25961)); test: cell-based or functional assay; settings: not given

**Q.** How did the “Adenylyl Cyclase (EC50)” value turn out when B1 was run?
**A.** 7 nM

**Q.** Which “Adenylyl Cyclase (EC50)” value does the source give for B2 here?
**A.** 16 nM

**Q.** B3 was tested. Which “Adenylyl Cyclase (EC50)” value did it give?
**A.** 24 nM

**Q.** With B4 as the molecule, how does the “Adenylyl Cyclase (EC50)” value read?
**A.** 6 nM

**Q.** How did the “Adenylyl Cyclase (EC50)” value turn out when B5 was run?
**A.** > 200 nM

**Q.** B6 was tested. Which “Adenylyl Cyclase (EC50)” value did it give?
**A.** 20 nM

**Q.** With B7 as the molecule, how does the “Adenylyl Cyclase (EC50)” value read?
**A.** 4 nM
